Experimental data: patent US20190381086A1, “INHIBITION OF NEDDYLATION USING GLYCYL-tRNA SYNTHETASE INHIBITORS” (The Scripps Research Institute, priority 2015, published 2019)

B1: ΔInsertion 1 GlyRS (F147-F224 replaced by GSGSGG) (enzyme)
chain: MDGAGAEEVLAPLRLAVRQQGDLVRKLKEDKAPQVDVDKAVAELKARKRVLEAKELALQPKDDIVDRAKMEDTLKRRFFYDQAFAIYGGVSGLYDFGPVGCALKNNIIQTWRQHFIQEEQILEIDCTMLTPEPVLKTSGHVDKFADGSGSGGNLMFKTFIGPGGNMPGYLRPETAQGIFLNFKRLLEFNQGKLPFAAAQIGNSFRNEISPRSGLIRVREFTMAEIEHFVDPSEKDHPKFQNVADLHLYLYSAKAQVSGQSARKMRLGDAVEQGVINNTVLGYFIGRIYLYLTKVGISPDKLRFRQHMENEMAHYACDCWDAESKTSYGWIEIVGCADRSCYDLSCHARATKVPLVAEKPLKEPKTVNVVQFEPSKGAIGKAYKKDAKLVMEYLAICDECYITEMEMLLNEKGEFTIETEGKTFQLTKDMINVKRFQKTLYVEEVVPNVIEPSFGLGRIMYTVFEHTFHVREGDEQRTFFSFPAVVAPFKCSVLPLSQNQEFMPFVKELSEALTRHGVSHKVDDSSGSIGRRYARTDEIGVAFGVTIDFDTVNKTPHTATLRDRDSMRQIRAEISELPSIVQDLANGNITWADVEARYPLFEGQETGKKETIEE
B2: full-length human GlyRS (enzyme)
chain: MDGAGAEEVLAPLRLAVRQQGDLVRKLKEDKAPQVDVDKAVAELKARKRVLEAKELALQPKDDIVDRAKMEDTLKRRFFYDQAFAIYGGVSGLYDFGPVGCALKNNIIQTWRQHFIQEEQILEIDCTMLTPEPVLKTSGHVDKFADFMVKDVKNGECFRADHLLKAHLQKLMSDKKCSVEKKSEMESVLAQLDNYGQQELADLFVNYNVKSPITGNDLSPPVSFNLMFKTFIGPGGNMPGYLRPETAQGIFLNFKRLLEFNQGKLPFAAAQIGNSFRNEISPRSGLIRVREFTMAEIEHFVDPSEKDHPKFQNVADLHLYLYSAKAQVSGQSARKMRLGDAVEQGVINNTVLGYFIGRIYLYLTKVGISPDKLRFRQHMENEMAHYACDCWDAESKTSYGWIEIVGCADRSCYDLSCHARATKVPLVAEKPLKEPKTVNVVQFEPSKGAIGKAYKKDAKLVMEYLAICDECYITEMEMLLNEKGEFTIETEGKTFQLTKDMINVKRFQKTLYVEEVVPNVIEPSFGLGRIMYTVFEHTFHVREGDEQRTFFSFPAVVAPFKCSVLPLSQNQEFMPFVKELSEALTRHGVSHKVDDSSGSIGRRYARTDEIGVAFGVTIDFDTVNKTPHTATLRDRDSMRQIRAEISELPSIVQDLANGNITWADVEARYPLFEGQETGKKETIEE
B3: ΔF84-L93 GlyRS (F84-L93 replaced by GGG) (enzyme)
chain: MDGAGAEEVLAPLRLAVRQQGDLVRKLKEDKAPQVDVDKAVAELKARKRVLEAKELALQPKDDIVDRAKMEDTLKRRFFYDQAGGGYDFGPVGCALKNNIIQTWRQHFIQEEQILEIDCTMLTPEPVLKTSGHVDKFADFMVKDVKNGECFRADHLLKAHLQKLMSDKKCSVEKKSEMESVLAQLDNYGQQELADLFVNYNVKSPITGNDLSPPVSFNLMFKTFIGPGGNMPGYLRPETAQGIFLNFKRLLEFNQGKLPFAAAQIGNSFRNEISPRSGLIRVREFTMAEIEHFVDPSEKDHPKFQNVADLHLYLYSAKAQVSGQSARKMRLGDAVEQGVINNTVLGYFIGRIYLYLTKVGISPDKLRFRQHMENEMAHYACDCWDAESKTSYGWIEIVGCADRSCYDLSCHARATKVPLVAEKPLKEPKTVNVVQFEPSKGAIGKAYKKDAKLVMEYLAICDECYITEMEMLLNEKGEFTIETEGKTFQLTKDMINVKRFQKTLYVEEVVPNVIEPSFGLGRIMYTVFEHTFHVREGDEQRTFFSFPAVVAPFKCSVLPLSQNQEFMPFVKELSEALTRHGVSHKVDDSSGSIGRRYARTDEIGVAFGVTIDFDTVNKTPHTATLRDRDSMRQIRAEISELPSIVQDLANGNITWADVEARYPLFEGQETGKKETIEE

Columns and labels:
[1] = target: Ubc12^N8: NEDD8-conjugated Ubc12 (C111S, stable ester linkage to His-SUMO-tagged NEDD8) (UniProt P61081); experiment: biolayer interferometry, Ubc12^N8 immobilized
[2] = target: Ubc12^N8: NEDD8-conjugated Ubc12 (C111S, stable ester linkage to His-SUMO-tagged NEDD8) (UniProt P61081); experiment: biolayer interferometry, Ubc12^N8 immobilized, full-length GlyRS 8.07-129 nM
[3] = target: Ubc12^N8: NEDD8-conjugated Ubc12 (C111S, stable ester linkage to His-SUMO-tagged NEDD8) (UniProt P61081); experiment: biolayer interferometry (Octet), 30 °C, Ubc12^N8 (100 nM) immobilized on sensor tips, GlyRS 0.25 µM; curve 'Blank' (no GlySA)
[4] = target: Ubc12^N8: NEDD8-conjugated Ubc12 (C111S, stable ester linkage to His-SUMO-tagged NEDD8) (UniProt P61081); experiment: biolayer interferometry (Octet), 30 °C, Ubc12^N8 (100 nM) immobilized on sensor tips, GlyRS 0.25 µM; in the presence of 0.5 mM of the small molecule GlySA
[5] = target: Ubc12^N8: NEDD8-conjugated Ubc12 (C111S, stable ester linkage to His-SUMO-tagged NEDD8) (UniProt P61081); experiment: biolayer interferometry (Octet), 30 °C, Ubc12^N8 (100 nM) immobilized on sensor tips, GlyRS 0.25 µM; in the presence of 1.0 mM of the small molecule GlySA

Binder	Kd [1]	Kd [2]	Kd [3]	Kd [4]	Kd [5]	fold decrease of binding against wild type GlyRS [1]
B1	4.32 nM					
B2		3.21 nM	2.12 nM	7.88 nM	22.4 nM	
B3	27 nM					9 fold
